Test results taken from US20250290928A1, “METHOD, KIT AND DEVICE FOR DETECTING EXTRACELLULAR VESICLES” (priority 2022, published 2025).
No end group written: not given here. TQ3 = quencher

What was measured:
[1] = molecular target: T1, MMP14 in the MDA-MB-231-derived extracellular vesicles (Homo sapiens, UniProt P50281); assay: Digital detection through MMP14 activity of MDA-MB-231-derived extracellular vesicles captured on anti-CD9/CD63/CD81 antibody-immobilized particles; type: biochemical; details: 24 hours of reaction
T1 construct: in terms of intact MMP14 with a molecular weight of 70 kDa
Protocol: The concentration of the solution is 10 μg/mL.
For detection of MMP14 activity, 1 mM Custom #2 was diluted with the buffer (4) to prepare a MMP14 detection solution containing 10 μM Custom #2.
The number of the particles was increased 4-fold, and a reaction was allowed to proceed. However, the number and concentration of the particles used to fill the wells are finally the same as those in other Examples.
The concentration of the solution is 10 μg/mL. The solution was subjected to 3-fold serial dilution to prepare standard samples with seven concentrations.
For detection of MMP14 activity, 1 mM Custom #2 and a 100 µM resorufin β-D-galactopyranoside solution were diluted with the buffer (4) to prepare a MMP14 and CD9/CD63/CD81 cocktail detection solution (1) containing 10 μM Custom #2 and 5 μM resorufin β-D-galactopyranoside. In addition, the solution was diluted 2-fold with the buffer (4) to prepare a detection solution (2). Nonfluorescent resorufin β-D-galactopyranoside is degraded by β-galactosidase to produce fluorescent resorufin. In this case, the maximum wavelengths of excitation and fluorescence of resorufin are 570 nm and 585 nm, respectively.
In addition, an antibody-immobilized particle solution was prepared and stored at 4° C. until use, in the same manner as in Example 28 except that Magnosphere MS300/Carboxyl (manufactured by JSR Corporation) (hereinafter abbreviated as “MS300C”) was used as magnetic particles.
For detection of MMP14 activity, 1 mM Custom #2 was diluted with the buffer (4) to prepare a MMP14 detection solution containing 5 μM Custom #2. In addition, 1 mM Custom #2T was diluted with the buffer (4) to prepare a MMP14 detection solution containing 2.5 μM Custom #2T.
An antibody-immobilized particle solution was prepared and stored at 4° C. until use, in the same manner as in Example 28 except that: MS300C was used as magnetic particles; and blocking treatment was performed at 4° C. or room temperature through use of Blockmaster CE210 or CE510 (manufactured by Medical & Biological Laboratories Co., Ltd.) instead of Bead Blocking Buffer (manufactured by Quanterix Corporation).
For detection of MMP14 activity, 1 mM Custom #2 and 1 mM Custom #2T were diluted with the buffer (4) to prepare a MMP14 detection solution containing 5 μM Custom #2 and 2.5 μM Custom #2T serving as the reporter molecules in the same system. […]

[2] = molecular target: T1, MMP14 in the MDA-MB-231-derived extracellular vesicles; assay: Digital detection through MMP14 activity of MDA-MB-231-derived extracellular vesicles captured on Tim4-immobilized magnetic particles; type: biochemical; details: Table 56, MB231 Present, 24 hours at 23° C.

## TAMRA-GGPLGLAGGK(TQ3) ({TAMRA}-GGPLGLAGGK(TQ3)) [Custom #2T]
[1]; Particle MS300C, MB231 Absent
  Extracellular vesicle concentration: 0.01 ×10^5/μg of protein
  Particle Expected value λ: 0.002
[1]; Particle MS300C, MB231 Present
  Extracellular vesicle concentration: 1.4687 ×10^5/μg of protein
  Particle Expected value λ: 0.2937
[1]; Particle Simoa, MB231 Absent
  Extracellular vesicle concentration: 0.0098 ×10^5/μg of protein
  Particle Expected value λ: 0.00196
[1]; Particle Simoa, MB231 Present
  Extracellular vesicle concentration: 0.3874 ×10^5/μg of protein
  Particle Expected value λ: 0.07748
[2]; Particle MS300C
  Particle Number of positives: 1,460
[2]; Particle Simoa
  Particle Number of positives: 359
